In patent publication US20110059095A1 (Regeneron, published 2011):

Assays:
[1] = target: T1, C-terminal biotinylated human PAR-2 peptide SEQ ID NO:874 (Ser-37 to Ala) (human, not fully specified; C-terminal biotin (K-B)); assay: BLI Exp1
T1 construct: alanine-scan mutant
T1 peptide: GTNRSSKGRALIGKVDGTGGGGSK
Description: (§1) In order to more particularly identify the amino acids of PAR-2 with which the PAR-2 antibodies interact, an alanine scanning study was carried out using peptides comprising the activating PAR-2 protease cleavage site.
(§2) The ability of each peptide mutant to bind to PAR-2 antibodies was measured using biolayer interferometry (Octet Red; ForteBio). Each peptide (2.5 μg/ml) was captured on streptavidin coated biosensor tips (Octet SA sensor) for 10 seconds. To measure binding and dissociation between each peptide and PAR-2 antibody, the peptide-coated biosensors were contacted with 200 nM solutions of PAR-2 antibodies for 5 minutes (binding) followed by transfer to buffer with no antibody for 10 min (dissociation). […] The results are expressed as percent binding and percent T_{1/2} relative to WT peptide (Tables 24-28).

[2] = target: T2, C-terminal biotinylated human PAR-2 peptide SEQ ID NO:880 (Asp-43 to Ala) (human, not fully specified; C-terminal biotin (K-B)); assay: BLI Exp1
T2 construct: alanine-scan mutant
T2 peptide: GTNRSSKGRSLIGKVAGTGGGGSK
Description: as §1, §2

[3] = target: T3, C-terminal biotinylated human PAR-2 peptide SEQ ID NO:873 (Arg-36 to Ala) (human, not fully specified; C-terminal biotin (K-B)); assay: BLI Exp1
T3 construct: alanine-scan mutant
T3 peptide: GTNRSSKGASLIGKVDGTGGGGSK
Description: as §1, §2

[4] = target: T4, C-terminal biotinylated human PAR-2 peptide SEQ ID NO:878 (Lys-41 to Ala) (human, not fully specified; C-terminal biotin (K-B)); assay: BLI Exp1
T4 construct: alanine-scan mutant
T4 peptide: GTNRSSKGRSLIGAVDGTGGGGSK
Description: as §1, §2

[5] = target: T5, C-terminal biotinylated human PAR-2 peptide SEQ ID NO:875 (Leu-38 to Ala) (human, not fully specified; C-terminal biotin (K-B)); assay: BLI Exp1
T5 construct: alanine-scan mutant
T5 peptide: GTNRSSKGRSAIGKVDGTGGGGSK
Description: as §1, §2

[6] = target: T6, C-terminal biotinylated human PAR-2 peptide SEQ ID NO:882 (Thr-45 to Ala) (human, not fully specified; C-terminal biotin (K-B)); assay: BLI Exp1
T6 construct: alanine-scan mutant
T6 peptide: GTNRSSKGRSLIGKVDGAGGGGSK
Description: as §1, §2

[7] = target: T7, C-terminal biotinylated human PAR-2 peptide SEQ ID NO:877 (Gly-40 to Ala) (human, not fully specified; C-terminal biotin (K-B)); assay: BLI Exp1
T7 construct: alanine-scan mutant
T7 peptide: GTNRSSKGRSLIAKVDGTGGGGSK
Description: as §1, §2

[8] = target: T8, C-terminal biotinylated human PAR-2 peptide SEQ ID NO:871 (wild-type) (human, not fully specified; C-terminal biotin (K-B)); assay: BLI Exp1
T8 construct: also called WT peptide
T8 peptide: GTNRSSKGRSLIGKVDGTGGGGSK
Description: as §1, §2

[9] = target: T9, C-terminal biotinylated human PAR-2 peptide SEQ ID NO:872 (Gly-35 to Ala) (human, not fully specified; C-terminal biotin (K-B)); assay: BLI Exp1
T9 construct: alanine-scan mutant
T9 peptide: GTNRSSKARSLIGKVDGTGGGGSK
Description: as §1, §2

[10] = target: T10, C-terminal biotinylated human PAR-2 peptide SEQ ID NO:881 (Gly-44 to Ala) (human, not fully specified; C-terminal biotin (K-B)); assay: BLI Exp1
T10 construct: alanine-scan mutant
T10 peptide: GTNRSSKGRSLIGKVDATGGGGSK
Description: as §1, §2

[11] = target: T11, C-terminal biotinylated human PAR-2 peptide SEQ ID NO:876 (Ile-39 to Ala) (human, not fully specified; C-terminal biotin (K-B)); assay: BLI Exp1
T11 construct: alanine-scan mutant
T11 peptide: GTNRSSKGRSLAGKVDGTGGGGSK
Description: as §1, §2

[12] = target: T12, C-terminal biotinylated human PAR-2 peptide SEQ ID NO:879 (Val-42 to Ala) (human, not fully specified; C-terminal biotin (K-B)); assay: BLI Exp1
T12 construct: alanine-scan mutant
T12 peptide: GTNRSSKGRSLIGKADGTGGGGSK
Description: as §1, §2

[13] = target: T1, C-terminal biotinylated human PAR-2 …; assay: BLI Exp2
Description: as §1, §2

[14] = target: T13, C-terminal biotinylated human PAR-2 14-mer peptide SEQ ID NO:886 (Asp-43 to Ala) (human, not fully specified; C-terminal biotin (K-B)); assay: BLI Exp2
T13 peptide: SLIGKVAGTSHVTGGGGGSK
Description: as §1, §2

[15] = target: T14, C-terminal biotinylated human PAR-2 14-mer peptide SEQ ID NO:884 (SLIGKVDGTSHVTG, wild-type) (human, not fully specified; C-terminal biotin (K-B)); assay: BLI Exp2
T14 peptide: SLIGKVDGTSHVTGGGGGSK
Description: as §1, §2

[16] = target: T15, C-terminal biotinylated human PAR-2 14-mer peptide SEQ ID NO:885 (Val-42 to Ala) (human, not fully specified; C-terminal biotin (K-B)); assay: BLI Exp2
T15 peptide: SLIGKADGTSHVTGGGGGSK
Description: as §1, §2

[17] = target: T7, C-terminal biotinylated human PAR-2 …; assay: BLI Exp2
Description: as §1, §2

[18] = target: T8, C-terminal biotinylated human PAR-2 …; assay: BLI Exp2
Description: as §1, §2

[19] = target: T10, C-terminal biotinylated human PAR-2 …; assay: BLI Exp2
Description: as §1, §2

[20] = target: T11, C-terminal biotinylated human PAR-2 …; assay: BLI Exp2
Description: as §1, §2

Row | Binder | % Rel Binding [1] [%] | % Rel T1/2 [1] [%] | % Rel Binding [2] [%] | % Rel T1/2 [2] [%] | % Rel Binding [3] [%] | % Rel T1/2 [3] [%] | % Rel Binding [4] [%] | % Rel T1/2 [4] [%] | % Rel Binding [5] [%] | % Rel T1/2 [5] [%] | % Rel Binding [6] [%] | % Rel T1/2 [6] [%] | % Rel Binding [7] [%] | % Rel T1/2 [7] [%] | % Rel Binding [8] [%] | % Rel T1/2 [8] [%] | % Rel Binding [9] [%] | % Rel T1/2 [9] [%] | % Rel Binding [10] [%] | % Rel T1/2 [10] [%] | further results
1 | H4H581P (antibody, human IgG4, V domains shown, also called mAb H4H581P; H1H581P variable regions) VH: QVQLVESGGGVVQPGRSLRLSCVASGFTFSRYGIHWVRQAPGKGLEWVIVISYDGINKYYADSVKGRFTISRDNSKNTVYLQMNSLRAEDTAVYYCAKGDFWSGYFDYWGQGTLVTVSS VL: DIVMTQTPLSSPVTLGQPASISCRSSQSLVHSDGNTYLSWLHQRPGQPPRLLIYKISNRFSGVPDRFSGSGAGTDFTLQISRVEAEDVGIYYCMQATQFPTFGGGTKVEIK | 45 | 7 | 18 | 36 | 87 | 122 | 113 | 63 | 9 | 0.4 | 65 | 129 | 101 | 33 | 100 | 100 | 78 | 118 | 67 | 117 | % Rel Binding [11]: 8%; % Rel T1/2 [11]: 0.2%; % Rel Binding [12]: 36%; % Rel T1/2 [12]: 1%; % Rel Binding [13]: 56%; % Rel T1/2 [13]: 3%; binding result [14]: no binding (tested: 200 nM antibody); % Rel Binding [15]: 100%; % Rel T1/2 [15]: 100%; % Rel Binding [16]: 19%; % Rel T1/2 [16]: 0%; % Rel Binding [17]: 92%; % Rel T1/2 [17]: 15%; % Rel Binding [18]: 100%; % Rel T1/2 [18]: 100%; % Rel Binding [19]: 102%; % Rel T1/2 [19]: 124%; % Rel Binding [20]: 14%; % Rel T1/2 [20]: 0%
2 | H4H588N (antibody, human IgG4, V domains shown, also called H2M588N variable regions) VH: EVQLLESGGGLVQPGGSLRLSCAASGFTFSSYAMTWVRQAPGKGLYWVSAISGGRGSAYYADSVKGRFTISRDNSKNTLYLQMNSLRAEDTAVYYCAKEGDSGYDLAYWGRGTLVTVSS VL: DIQMTQSPSSLSASVGDRVTITCRARQGISNNLAWLQQKPGKAPKSLIYAASSLQSGIPSKFSGSGSGTYFTLTISSLQPEDFATYYCQQYKSSPLTFGGGTKVEIK | 119 | 100 | 35 | 4 | 208 | 100 | 217 | 108 | 127 | 100 | 125 | 94 | 30 | 1 | 100 | 100 | 122 | 100 | 81 | 1 | % Rel Binding [11]: 92%; % Rel T1/2 [11]: 36%; % Rel Binding [12]: 74%; % Rel T1/2 [12]: 1%; % Rel Binding [13]: 93%; % Rel T1/2 [13]: 70%; binding result [14]: no binding (tested: 200 nM antibody); % Rel Binding [15]: 100%; % Rel T1/2 [15]: 100%; % Rel Binding [16]: 83%; % Rel T1/2 [16]: 0%; % Rel Binding [17]: 30%; % Rel T1/2 [17]: 0%; % Rel Binding [18]: 100%; % Rel T1/2 [18]: 100%; % Rel Binding [19]: 67%; % Rel T1/2 [19]: 1%; % Rel Binding [20]: 85%; % Rel T1/2 [20]: 8%
